In experiment [1] the target is F protein of hMPV B virus (human metapneumovirus subtype B). The experiment in a line: cell-based or functional assay.
The target of experiment [2] is F protein of hMPV A virus (human metapneumovirus subtype A). The experiment in a line: cell-based or functional assay.
Experiment [3] addresses T1, Unprocessed hMPV PreF trimer (human metapneumovirus, strain B2).
T1 construct: also called Unprocessed hMPV WT PreF trimer; unprocessed hMPV PreF trimeric antigen
The experiment in a line: BLI, mAb on anti-human Fc sensor.

Experiment [4] addresses T2, hMPV PostF trimer (human metapneumovirus, strain B2).
T2 construct: also called MPV PostF (dPFv1)
The experiment in a line: BLI, mAb on anti-human Fc sensor.

Experiment [5] has as its target T3, Processed stabilized hMPV PreF trimer (115BV) (human metapneumovirus, strain B2).
T3 construct: also called Processed hMPV PreF trimer; processed PreF
The experiment in a line: BLI, mAb on anti-human Fc sensor.

In experiment [6] the target is T3, Processed stabilized hMPV PreF trimer …. The experiment in a line: BLI, ratio to unprocessed PreF trimer.

The values below come from patent publication US20240327502A1 (Merck Sharp & Dohme, published 2024).

B1: M3D04 (antibody, V domains shown)
VH: EVQLVESGGDLVEPGGSLRLSCAASGFTFESAWMSWVRQAPGKGLEWVGRIKSKLDHGTTDYAAPVKGRFTLSRDDSKNTLFLQMNNLKTEDTGVYYCATDRSDVRFLEWLGNYQFGMDVWGQGTTVAVSS
VL: EIVLTQSPGTLSLSPGERATLSCRASHSVSSSYLAWYQQKPGQAPRLLIFGASSRATGIPDRFSGSGSGTDFTLTISRLEPEDFAVYYCQQYLTSPPGWTFGQGTKVEIK
Consider B1, for which the “PRNT IC50” value stood at 0.327 µg/mL in experiment [1] and 0.2 µg/mL in experiment [2].

B2: M4B11 (antibody, V domains shown)
VH: QVQLVQSGTEVQTPGASVKVSCKTSGYIFTGYFMHWVRQAPGQGFEWMGWVNPYSGATTYAQKFQGRVTMTRDTSISTVYMELSRLTSDDTAIYYCAKDTSNSGPDLLEHWGQGTLVIVSS
VL: EIVLTQSPATLSLSPGERATLSCRASQSISNFLVWYQRKPGQAPRLLIFDVSKRATGIPTRFSGSGSGTDFTLTISSLEPEDFAVYYCQQRSNWPPGYTFGQGTKLEIK
Take B2: the “PRNT IC50” value in experiment [1] is 0.238 µg/mL; in experiment [2] it was 0.652 µg/mL.

B3: M2E08 (antibody, V domains shown)
VH: EVQLVESGGDLVLPGGSLRLSCEASGFMFSSYAMNWVRQAPGKGLERVSGISGSGGNTYYADSVKGRFTISRDNSKNIVYLQMNSLRAEDTAVYYCAKDLGNDYFYYIDVWGKGTTVMVSS
VL: QSVLTQPPSVSGAPGQRVTISCTGTNFNIGAGYDVQWYQQLPGAAPKLLIHGNTYRPSGVPDRFSGSKSGTSASLAITGLQAEDEADYYCQSYDSSLSMVFGGGTKLTVL
notes: IgG
For the molecule B3, the Octet binding response in experiment [3] was 0.349 nm; in experiment [4], -0.0233 nm; in experiment [5], 0.0781 nm. For the same molecule, the “processed/unprocessed PreF trimer binding ratio” value in experiment [6] stood at 0.22.

B4: M2C10 (antibody, V domains shown)
VH: QVQLVESGGGVVQPGRSLRLSCAASGFTFNNYAMHWVRQAPGKGLEWVALISDDGSKKYFADALKGRFTIFRDNSKNTLYLQMNSLRAEDTAVYYCARDPTPLGEYYFDYWGQGTLVTVSS
VL: DIQMTQSPSSLSASVGDRVTITCRASQTISGYLNWYQQKPGKAPNLLIYTASSLESGVPSRFSGSGSETDFTLTISSLQPEDFATYYCQQSYRMPLTFGGGTRVSLK
notes: IgG
Consider B4, for which the Octet binding response was 0.382 nm in experiment [3], -0.0261 nm in experiment [4] and 0.0939 nm in experiment [5]. Further, in experiment [6], the “processed/unprocessed PreF trimer binding ratio” value was determined as 0.25.

B5: M3A04 (antibody, V domains shown)
VH: QVQLVESGGGVVQPGRSLRLSCAASGLTFSTYVMHWVRQAPGKGLEWVAVISYDGTNEHYADSVKGRFTISRDNSKNTLYLQMNSLRPEDTAVYYCARGTADYDVWSGSAWGGFDYWGQGTLVTVSS
VL: DIQMTQSPSSLSASVGDRVTITCRASQSISSYLNWYQQKPGKAPKLLMYTVSSLPSGVPSRFSGSGSGTDFTLTISSLQPEDFATYYCQQSYNIPYTFGQGTKLEIK
notes: IgG
Turning to B5, the Octet binding response in experiment [3] is 0.373 nm; in experiment [4], -0.0261 nm; in experiment [5] it was 0.0846 nm. Also, in experiment [6], the “processed/unprocessed PreF trimer binding ratio” value was found to be 0.23.

B6: M3B12 (antibody, V domains shown)
VH: QVQLVESGGGVVQPGGSLRLSCAASGFTFSSYGMHWVRQAPGKGLEWVAFIRYDGSNKYYADSVKGRFTISRDNSKNTLYLQMNSLRAEDTAVYYCAKDSGSYYYYYYMDVWGKGTTVTVSS
VL: not shown
notes: IgG
Turning to B6, the Octet binding response in experiment [3] was 0.157 nm; in experiment [4], 0.417 nm; in experiment [5], 0.0102 nm. Besides, the “processed/unprocessed PreF trimer binding ratio” value in experiment [6] turned out to be 0.07.

B7: M3B04 (antibody, V domains shown)
VH: QVQLQESGPGLVKPSETVSLTCTVSGGSISSNNWWSWVRQSPGKGLEWIGEIYHSGSTNFNPSLKSRVTISVDKSKNHFSLKLGSLTAADTAVYYCARRPNDYGDYSYYYYYYMDVWGKGTTVTVSS
VL: EIVLTQSPATLSLSPGESATLSCRASQSINRNLAWYQQKPGQAPRLLIYDASNRATGIPARFSGSGSGTDFTLTISSLEPEDFAVYYCQQRSHWVTFGQGTRLEIK
notes: IgG
Regarding B7, the Octet binding response in experiment [3] is 0.177 nm; in experiment [4] it was 0.446 nm; in experiment [5], 0.0297 nm. In experiment [6], the “processed/unprocessed PreF trimer binding ratio” value was 0.17.

B8: M1A08 (antibody, V domains shown)
VH: QVQLVQSGAEVKKPGASVKVSCKASGVTLTDYYFHWIRQAPGQALEWMGRINPARGGTHYAEKFEDRVTMTTDTSTNTVYMDLSSLRSDDTAVYYCARSGSTHNIYSGFYAFDHWGQGTLVTVSS
VL: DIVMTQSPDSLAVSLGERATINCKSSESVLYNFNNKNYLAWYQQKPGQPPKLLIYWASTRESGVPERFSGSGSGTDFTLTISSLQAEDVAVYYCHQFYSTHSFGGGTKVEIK
Regarding B8, the entries for the “PRNT IC50” value in experiment [1] and in experiment [2] were 0.72 µg/mL and 2.27 µg/mL, respectively.

B9: M3A03 (antibody, V domains shown)
VH: QVQLVQSGAEVKKPGASVKVSCKASAYTFTSYGITWVRQAPGQGLEWMGWISAYRGNTKYAQKLQGRVTMTTDTSTSTASMELRSLRSDDTAVYYCARTSYYDSSYYPIDYWGQGTLVTVSS
VL: SYVLTQPPSVSVAPGQTARITCGGNNIGSKSVQWYQQKPGQAPVLVVYDDSDRPSGIPERFSGSNSGNTATLTISRVEAGDEADYYCQVWDSSGDRVVFGGGTKLTVL
notes: IgG
For B9, the Octet binding response in experiment [3] turned out to be 0.181 nm; in experiment [4] it was 0.568 nm; in experiment [5], 0.0409 nm. In experiment [6], the “processed/unprocessed PreF trimer binding ratio” value stood at 0.23.

B10: M2E01 (antibody, V domains shown)
VH: QLQLQESGPGLVKPSETLSLTCTVSGGSISSSTYYWGWIRQPPGKGLEWIGTIYYSGSTDYNPSLKSRLTISVDTSKNQFSLRLRSVTAADTAVYYCARLVSPYDQFDYWGQGTLVTVSS
VL: DIQMTQSPSSLSASVGDRVTITCRASQTITTYLSWYLQKPGKAPKLLIYAASSWQSGVPSRFSGSGSGTDFTLTISSLQPEDFATYYCQQSYSTPYTFGQGTKLEIK
notes: IgG
Regarding B10, the Octet binding response in experiment [3] was 0.408 nm; in experiment [4], -0.016 nm; in experiment [5], 0.126 nm. Moreover, in experiment [6], the “processed/unprocessed PreF trimer binding ratio” value came out at 0.31.

B11: M3E09 (antibody, V domains shown)
VH: EVQLVESGGGVVRPGGSLRLSCAASGFRFDDYAMNWVRQAPGKGLEWVSGINWIGGTTKYADSVKGRFTISRDNTKNSLYLQMNSLRAEDTALYYCARGVGYYYYYMDVWGRGTTVTVSS
VL: EIVLTQSPGTLSLSPGERATLSCRATQSVSSNYLAWYQQKPGQAPRLLIYDASSRAIGIPDRFSGSGSGTDFTLTISRLESEDFAVYYCQQYGSSPETFGQGTKVEIK
notes: IgG
In the case of B11, the Octet binding response is 0.226 nm in experiment [3], -0.0506 nm in experiment [4] and 0.0948 nm in experiment [5]. The “processed/unprocessed PreF trimer binding ratio” value in experiment [6] is 0.42.

B12: M3A12 (antibody, V domains shown)
VH: QVQLQESGPQLVKPSQTLSLTCTVSGDSISSSDYCWSWIRQSPGKGLEWIGHSVYSGDTQYNPSLKSRLSISVDTSKNQFSLRLRSVTAADTAVYYCARGNDFWSGSFDYWGQGALVIVSS
VL: DIQMTQSPSSLSASVGDRVTITCRASQSIGTYLNWYQQKPGKAPKVLIYAASSLQSGVPSRFSGRGSGTDFTLTVSSLQPEDFASYYCQQSYTKPYTFGQGTKLEIK
notes: IgG
For the molecule B12, the figures for the Octet binding response in experiment [3], in experiment [4] and in experiment [5] were 0.31 nm, 0.0469 nm and 0.0766 nm, respectively. Moreover, in experiment [6], the “processed/unprocessed PreF trimer binding ratio” value stood at 0.25.

B13: M3D03 (antibody, V domains shown)
VH: QVQLVQSGAEVKKPGASVKVSCKASGYTFTSYGISWVRQAPGQGLEWMGWISAYNGNTNYAQKLQGRVTMTTDTSTSTAYMELRSLRSDDTAVYYCARDAPFGRDDGYGMDVWGQGTTVTVSS
VL: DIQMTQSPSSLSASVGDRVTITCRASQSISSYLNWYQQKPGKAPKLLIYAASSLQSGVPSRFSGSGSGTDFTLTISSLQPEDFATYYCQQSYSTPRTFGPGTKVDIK
notes: IgG
B13: the figures for the Octet binding response in experiment [3], in experiment [4] and in experiment [5] were 0.242 nm, -0.054 nm and 0.0286 nm, respectively. The “processed/unprocessed PreF trimer binding ratio” value in experiment [6] amounted to 0.12.

B14: M2D02 (antibody, V domains shown)
VH: QVQLVQSGAEVKKPGSSVKVSCKASGGTLTRYTISWVRQAPGQGLEWMGRIIPFLDIANYAPRFQGRVTMTADKSTSTAYMELSSLTSQDTAIYYCARDHSGNYFDLWGQGTLVTVSS
VL: EIVMTQSPATLSVSPGERATLSCRASQSVTSNLAWYQRKPGQAPRLLIYGASTGATDIPGRFSGSGSGTEFTLTISGLQSEDFAVYYCQQYDHWPRTFGQGTKVEIK
notes: IgG
Take B14: the Octet binding response in experiment [3] was 0.216 nm; in experiment [4], 0.541 nm; in experiment [5], 0.0468 nm. Moreover, the “processed/unprocessed PreF trimer binding ratio” value in experiment [6] is 0.22.

B15: M2E07 (antibody, V domains shown)
VH: EVQLVESGGGLVQTGGSLRLACAASGFTFSSYAMSWVRQAPGKGLEWVSTITESGDDAYYADSVKGRLTISRDNSKNTLFLHLNGLRSEDTARYYCAKDMGLYKSSWYGNFFYYYYMDVWGEGTTVTVSS
VL: QSALTQPASVSGSPGQSITISCTGSSSNIGSFDLISWYQQHPGKAPKFIIYEGDKRPSGVSYRFSGSKSGSTASLTISGLQAEDEAYYYCCSYARSRTLVFGGGTKVTVL
notes: IgG
On to B15, for which the results for the Octet binding response in experiment [3], in experiment [4] and in experiment [5] were 0.216 nm, 0.0137 nm and 0.0476 nm, respectively. Also, in experiment [6], the “processed/unprocessed PreF trimer binding ratio” value was found to be 0.22.

B16: M2B04 (antibody, V domains shown)
VH: QVQLVQSGPEVKKPGASVKVSCKASGYSITTYGIDWVRQAPGQGLEWIGWSSAHTGNTNYAEKFQGRVTMTTDTSTYTTYMELRSLKSDDTAVYYCAMGAYTSSRNWFDPWGQGTLVIVSS
VL: EIVLTQSPATLSLSPGERATLSCRASQNINNFLAWYQQKAGQAPRLLIYDASNRATGIPGRFSGSGSGTDFTLTISSLEPEDFAVYYCQQRANWPLTFGGGTKVEVK
notes: IgG
Take B16: the Octet binding response in experiment [3] stood at 0.328 nm; in experiment [4] it was 0.0152 nm; in experiment [5], 0.125 nm. Besides, the “processed/unprocessed PreF trimer binding ratio” value in experiment [6] was found to be 0.38.
